Numbered stars: 1 amine (or outer) side, 2 acyl side, 3 side chain; on linkers, the order of the positions; unused ones are H or OH. Bridge positions count the residues as written; N and C are the ends. Side chains are listed from the residue outwards. Ends that are not written are not given here. * marks the point of attachment. C20 diacid = O=C(O)CCCCCCCCCCCCCCCCCCC(=O)*; γGlu = O=C(O)[C@H](CCC(=O)[*:2])N[*:1]; AEEA = NCCOCCOCC(=O)O
T1: human calcitonin receptor (human, UniProt P30988 25-474)
T1 sequence (looked up): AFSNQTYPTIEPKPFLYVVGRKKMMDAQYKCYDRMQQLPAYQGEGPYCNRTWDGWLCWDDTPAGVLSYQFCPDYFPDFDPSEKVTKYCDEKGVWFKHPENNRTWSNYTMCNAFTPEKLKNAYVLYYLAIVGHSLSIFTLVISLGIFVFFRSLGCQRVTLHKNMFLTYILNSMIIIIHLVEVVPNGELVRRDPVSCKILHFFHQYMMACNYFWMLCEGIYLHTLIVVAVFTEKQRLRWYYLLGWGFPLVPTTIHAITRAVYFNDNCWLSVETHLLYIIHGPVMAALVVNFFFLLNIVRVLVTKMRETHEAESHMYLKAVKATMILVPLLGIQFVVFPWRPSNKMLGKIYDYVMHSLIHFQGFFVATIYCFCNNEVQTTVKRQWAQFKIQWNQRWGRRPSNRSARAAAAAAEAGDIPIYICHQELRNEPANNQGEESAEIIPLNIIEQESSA

B1: N^ε1-[2-[2-[2-[[(4S)-4-carboxy-4-(19-carboxynonadecanoylamino)butanoyl]amino]ethoxy]ethoxy]acetyl]-[Arg17,Pro21,Pro27]-h-amylin (peptide)
peptide: K([AEEA-γGlu-C20 diacid])CNTATCATQRLANFLRHSSPNFGAIPSSTNVGSNTY-NH2
modifications: disulfide 2-7; N-terminus assumed
SMILES: CC[C@H](C)[C@H](NC(=O)[C@H](C)NC(=O)CNC(=O)[C@H](Cc1ccccc1)NC(=O)[C@H](CC(N)=O)NC(=O)[C@@H]1CCCN1C(=O)[C@H](CO)NC(=O)[C@H](CO)NC(=O)[C@H](Cc1c[nH]cn1)NC(=O)[C@H](CCCNC(=N)N)NC(=O)[C@H](CC(C)C)NC(=O)[C@H](Cc1ccccc1)NC(=O)[C@H](CC(N)=O)NC(=O)[C@H](C)NC(=O)[C@H](CC(C)C)NC(=O)[C@H](CCCNC(=N)N)NC(=O)[C@H](CCC(N)=O)NC(=O)[C@@H](NC(=O)[C@H](C)NC(=O)[C@@H]1CSSC[C@H](NC(=O)[C@@H](N)CCCCNC(=O)COCCOCCNC(=O)CC[C@H](NC(=O)CCCCCCCCCCCCCCCCCCC(=O)O)C(=O)O)C(=O)N[C@@H](CC(N)=O)C(=O)N[C@@H]([C@@H](C)O)C(=O)N[C@@H](C)C(=O)N[C@@H]([C@@H](C)O)C(=O)N1)[C@@H](C)O)C(=O)N1CCC[C@H]1C(=O)N[C@@H](CO)C(=O)N[C@@H](CO)C(=O)N[C@H](C(=O)N[C@@H](CC(N)=O)C(=O)N[C@H](C(=O)NCC(=O)N[C@@H](CO)C(=O)N[C@@H](CC(N)=O)C(=O)N[C@H](C(=O)N[C@@H](Cc1ccc(O)cc1)C(N)=O)[C@@H](C)O)C(C)C)[C@@H](C)O
notes: h-amylin derivative; disulfide bridge and C-terminal amide as told for human amylin; also called compound 41
B2: N^ε1-[2-[2-[2-(19-carboxynonadecanoylamino)ethoxy]ethoxy]acetyl]-[Arg17,Pro21,Pro27]-h-amylin (peptide)
peptide: K([AEEA-C20 diacid])CNTATCATQRLANFLRHSSPNFGAIPSSTNVGSNTY-NH2
modifications: disulfide 2-7; N-terminus assumed
SMILES: CC[C@H](C)[C@H](NC(=O)[C@H](C)NC(=O)CNC(=O)[C@H](Cc1ccccc1)NC(=O)[C@H](CC(N)=O)NC(=O)[C@@H]1CCCN1C(=O)[C@H](CO)NC(=O)[C@H](CO)NC(=O)[C@H](Cc1c[nH]cn1)NC(=O)[C@H](CCCNC(=N)N)NC(=O)[C@H](CC(C)C)NC(=O)[C@H](Cc1ccccc1)NC(=O)[C@H](CC(N)=O)NC(=O)[C@H](C)NC(=O)[C@H](CC(C)C)NC(=O)[C@H](CCCNC(=N)N)NC(=O)[C@H](CCC(N)=O)NC(=O)[C@@H](NC(=O)[C@H](C)NC(=O)[C@@H]1CSSC[C@H](NC(=O)[C@@H](N)CCCCNC(=O)COCCOCCNC(=O)CCCCCCCCCCCCCCCCCCC(=O)O)C(=O)N[C@@H](CC(N)=O)C(=O)N[C@@H]([C@@H](C)O)C(=O)N[C@@H](C)C(=O)N[C@@H]([C@@H](C)O)C(=O)N1)[C@@H](C)O)C(=O)N1CCC[C@H]1C(=O)N[C@@H](CO)C(=O)N[C@@H](CO)C(=O)N[C@H](C(=O)N[C@@H](CC(N)=O)C(=O)N[C@H](C(=O)NCC(=O)N[C@@H](CO)C(=O)N[C@@H](CC(N)=O)C(=O)N[C@H](C(=O)N[C@@H](Cc1ccc(O)cc1)C(N)=O)[C@@H](C)O)C(C)C)[C@@H](C)O
notes: h-amylin derivative; disulfide bridge and C-terminal amide as told for human amylin; also called compound 43
B3: N^ε-[(4S)-4-carboxy-4-(19-carboxynonadecanoylamino)butanoyl]Lys[Arg1,Arg17,Pro21,Pro27,His35]-h-amylin (peptide)
peptide: K([γGlu-C20 diacid])RCNTATCATQRLANFLRHSSPNFGAIPSSTNVGSHTY-NH2
modifications: disulfide 3-8; N-terminus assumed
SMILES: CC[C@H](C)[C@H](NC(=O)[C@H](C)NC(=O)CNC(=O)[C@H](Cc1ccccc1)NC(=O)[C@H](CC(N)=O)NC(=O)[C@@H]1CCCN1C(=O)[C@H](CO)NC(=O)[C@H](CO)NC(=O)[C@H](Cc1c[nH]cn1)NC(=O)[C@H](CCCNC(=N)N)NC(=O)[C@H](CC(C)C)NC(=O)[C@H](Cc1ccccc1)NC(=O)[C@H](CC(N)=O)NC(=O)[C@H](C)NC(=O)[C@H](CC(C)C)NC(=O)[C@H](CCCNC(=N)N)NC(=O)[C@H](CCC(N)=O)NC(=O)[C@@H](NC(=O)[C@H](C)NC(=O)[C@@H]1CSSC[C@H](NC(=O)[C@H](CCCNC(=N)N)NC(=O)[C@@H](N)CCCCNC(=O)CC[C@H](NC(=O)CCCCCCCCCCCCCCCCCCC(=O)O)C(=O)O)C(=O)N[C@@H](CC(N)=O)C(=O)N[C@@H]([C@@H](C)O)C(=O)N[C@@H](C)C(=O)N[C@@H]([C@@H](C)O)C(=O)N1)[C@@H](C)O)C(=O)N1CCC[C@H]1C(=O)N[C@@H](CO)C(=O)N[C@@H](CO)C(=O)N[C@H](C(=O)N[C@@H](CC(N)=O)C(=O)N[C@H](C(=O)NCC(=O)N[C@@H](CO)C(=O)N[C@@H](Cc1c[nH]cn1)C(=O)N[C@H](C(=O)N[C@@H](Cc1ccc(O)cc1)C(N)=O)[C@@H](C)O)C(C)C)[C@@H](C)O
notes: h-amylin derivative, N-terminally extended by one residue; disulfide bridge and C-terminal amide as told for human amylin; also called compound 44
B4: N^-1-[(4S)-4-carboxy-4-(19-carboxynonadecanoylamino)butanoyl]-Gly[Arg1,Arg17,Pro21,Pro27]-h-amylin (peptide)
peptide: {C20 diacid-γGlu}-GRCNTATCATQRLANFLRHSSPNFGAIPSSTNVGSNTY-NH2
modifications: disulfide 3-8
SMILES: CC[C@H](C)[C@H](NC(=O)[C@H](C)NC(=O)CNC(=O)[C@H](Cc1ccccc1)NC(=O)[C@H](CC(N)=O)NC(=O)[C@@H]1CCCN1C(=O)[C@H](CO)NC(=O)[C@H](CO)NC(=O)[C@H](Cc1c[nH]cn1)NC(=O)[C@H](CCCNC(=N)N)NC(=O)[C@H](CC(C)C)NC(=O)[C@H](Cc1ccccc1)NC(=O)[C@H](CC(N)=O)NC(=O)[C@H](C)NC(=O)[C@H](CC(C)C)NC(=O)[C@H](CCCNC(=N)N)NC(=O)[C@H](CCC(N)=O)NC(=O)[C@@H](NC(=O)[C@H](C)NC(=O)[C@@H]1CSSC[C@H](NC(=O)[C@H](CCCNC(=N)N)NC(=O)CNC(=O)CC[C@H](NC(=O)CCCCCCCCCCCCCCCCCCC(=O)O)C(=O)O)C(=O)N[C@@H](CC(N)=O)C(=O)N[C@@H]([C@@H](C)O)C(=O)N[C@@H](C)C(=O)N[C@@H]([C@@H](C)O)C(=O)N1)[C@@H](C)O)C(=O)N1CCC[C@H]1C(=O)N[C@@H](CO)C(=O)N[C@@H](CO)C(=O)N[C@H](C(=O)N[C@@H](CC(N)=O)C(=O)N[C@H](C(=O)NCC(=O)N[C@@H](CO)C(=O)N[C@@H](CC(N)=O)C(=O)N[C@H](C(=O)N[C@@H](Cc1ccc(O)cc1)C(N)=O)[C@@H](C)O)C(C)C)[C@@H](C)O
notes: h-amylin derivative, N-terminally extended by one residue; disulfide bridge and C-terminal amide as told for human amylin; also called compound 46
B5: N^ε-[2-[2-[2-[[(4S)-4-carboxy-4-(19-carboxynonadecanoylamino)butanoyl]amino]ethoxy]ethoxy]acetyl]Lys[Arg1,Arg17,Pro21,Pro27,His35]-h-amylin (peptide)
peptide: K([AEEA-γGlu-C20 diacid])RCNTATCATQRLANFLRHSSPNFGAIPSSTNVGSHTY-NH2
modifications: disulfide 3-8; N-terminus assumed
SMILES: CC[C@H](C)[C@H](NC(=O)[C@H](C)NC(=O)CNC(=O)[C@H](Cc1ccccc1)NC(=O)[C@H](CC(N)=O)NC(=O)[C@@H]1CCCN1C(=O)[C@H](CO)NC(=O)[C@H](CO)NC(=O)[C@H](Cc1c[nH]cn1)NC(=O)[C@H](CCCNC(=N)N)NC(=O)[C@H](CC(C)C)NC(=O)[C@H](Cc1ccccc1)NC(=O)[C@H](CC(N)=O)NC(=O)[C@H](C)NC(=O)[C@H](CC(C)C)NC(=O)[C@H](CCCNC(=N)N)NC(=O)[C@H](CCC(N)=O)NC(=O)[C@@H](NC(=O)[C@H](C)NC(=O)[C@@H]1CSSC[C@H](NC(=O)[C@H](CCCNC(=N)N)NC(=O)[C@@H](N)CCCCNC(=O)COCCOCCNC(=O)CC[C@H](NC(=O)CCCCCCCCCCCCCCCCCCC(=O)O)C(=O)O)C(=O)N[C@@H](CC(N)=O)C(=O)N[C@@H]([C@@H](C)O)C(=O)N[C@@H](C)C(=O)N[C@@H]([C@@H](C)O)C(=O)N1)[C@@H](C)O)C(=O)N1CCC[C@H]1C(=O)N[C@@H](CO)C(=O)N[C@@H](CO)C(=O)N[C@H](C(=O)N[C@@H](CC(N)=O)C(=O)N[C@H](C(=O)NCC(=O)N[C@@H](CO)C(=O)N[C@@H](Cc1c[nH]cn1)C(=O)N[C@H](C(=O)N[C@@H](Cc1ccc(O)cc1)C(N)=O)[C@@H](C)O)C(C)C)[C@@H](C)O
notes: h-amylin derivative, N-terminally extended by one residue; disulfide bridge and C-terminal amide as told for human amylin; also called compound 45
B6: N^ε1-[(4S)-4-carboxy-4-(19-carboxynonadecanoylamino)butanoyl]-[Arg17,Pro21,Pro27]-h-amylin (peptide)
peptide: K([γGlu-C20 diacid])CNTATCATQRLANFLRHSSPNFGAIPSSTNVGSNTY-NH2
modifications: disulfide 2-7; N-terminus assumed
SMILES: CC[C@H](C)[C@H](NC(=O)[C@H](C)NC(=O)CNC(=O)[C@H](Cc1ccccc1)NC(=O)[C@H](CC(N)=O)NC(=O)[C@@H]1CCCN1C(=O)[C@H](CO)NC(=O)[C@H](CO)NC(=O)[C@H](Cc1c[nH]cn1)NC(=O)[C@H](CCCNC(=N)N)NC(=O)[C@H](CC(C)C)NC(=O)[C@H](Cc1ccccc1)NC(=O)[C@H](CC(N)=O)NC(=O)[C@H](C)NC(=O)[C@H](CC(C)C)NC(=O)[C@H](CCCNC(=N)N)NC(=O)[C@H](CCC(N)=O)NC(=O)[C@@H](NC(=O)[C@H](C)NC(=O)[C@@H]1CSSC[C@H](NC(=O)[C@@H](N)CCCCNC(=O)CC[C@H](NC(=O)CCCCCCCCCCCCCCCCCCC(=O)O)C(=O)O)C(=O)N[C@@H](CC(N)=O)C(=O)N[C@@H]([C@@H](C)O)C(=O)N[C@@H](C)C(=O)N[C@@H]([C@@H](C)O)C(=O)N1)[C@@H](C)O)C(=O)N1CCC[C@H]1C(=O)N[C@@H](CO)C(=O)N[C@@H](CO)C(=O)N[C@H](C(=O)N[C@@H](CC(N)=O)C(=O)N[C@H](C(=O)NCC(=O)N[C@@H](CO)C(=O)N[C@@H](CC(N)=O)C(=O)N[C@H](C(=O)N[C@@H](Cc1ccc(O)cc1)C(N)=O)[C@@H](C)O)C(C)C)[C@@H](C)O
notes: h-amylin derivative; disulfide bridge and C-terminal amide as told for human amylin; also called compound 48

Each binder was assayed against T1, human calcitonin receptor (assay: cell-based or functional assay).

Row | Binder | hCTR funct. EC50
1 | B1 | 4.35 nM
2 | B2 | 0.92 nM
3 | B3 | 4.75 nM
4 | B4 | 0.899 nM
5 | B5 | 10.1 nM
6 | B6 | 1.97 nM

— US20140087995A1 (published 2014)
